Measurements from IntAct's records for PubMed 19966303.

B1: Serine/threonine-protein kinase YPK1 (Saccharomyces cerevisiae), P12688 (parent)
chain: MYSWKSKFKFGKSKEEKEAKHSGFFHSSKKEEQQNNQATAGEHDASITRSSLDRKGTINPSNSSVVPVRVSYDASSSTSTVRDSNGGNSENTNSSQNLDETANIGSTGTPNDATSSSGMMTIKVYNGDDFILPFPITSSEQILNKLLASGVPPPHKEISKEVDALIAQLSRVQIKNQGPADEDLISSESAAKFIPSTIMLPGSSTLNPLLYFTIEFDNTVATIEAEYGTIAKPGFNKISTFDVTRKLPYLKIDVFARIPSILLPSKTWQQEMGLQDEKLQTIFDKINSNQDIHLDSFHLPINLSFDSAASIRLYNHHWITLDNGLGKINISIDYKPSRNKPLSIDDFDLLKVIGKGSFGKVMQVRKKDTQKVYALKAIRKSYIVSKSEVTHTLAERTVLARVDCPFIVPLKFSFQSPEKLYFVLAFINGGELFYHLQKEGRFDLSRARFYTAELLCALDNLHKLDVVYRDLKPENILLDYQGHIALCDFGLCKLNMKDDDKTDTFCGTPEYLAPELLLGLGYTKAVDWWTLGVLLYEMLTGLPPYYDEDVPKMYKKILQEPLVFPDGFDRDAKDLLIGLLSRDPTRRLGYNGADEIRNHPFFSQLSWKRLLMKGYIPPYKPAVSNSMDTSNFDEEFTREKPIDSVVDEYLSESVQKQFGGWTYVGNEQLGSSMVQGRSIR
B2: Phospholipid-transporting ATPase DNF1 (Saccharomyces cerevisiae), P32660 (parent)
chain: MSGTFHGDGHAPMSPFEDTFQFEDNSSNEDTHIAPTHFDDGATSNKYSRPQVSFNDETPKNKREDAEEFTFNDDTEYDNHSFQPTPKLNNGSGTFDDVELDNDSGEPHTNYDGMKRFRMGTKRNKKGNPIMGRSKTLKWARKNIPNPFEDFTKDDIDPGAINRAQELRTVYYNMPLPKDMIDEEGNPIMQYPRNKIRTTKYTPLTFLPKNILFQFHNFANVYFLVLIILGAFQIFGVTNPGLSAVPLVVIVIITAIKDAIEDSRRTVLDLEVNNTKTHILEGVENENVSTDNISLWRRFKKANSRLLFKFIQYCKEHLTEEGKKKRMQRKRHELRVQKTVGTSGPRSSLDSIDSYRVSADYGRPSLDYDNLEQGAGEANIVDRSLPPRTDCKFAKNYWKGVKVGDIVRIHNNDEIPADIILLSTSDTDGACYVETKNLDGETNLKVRQSLKCTNTIRTSKDIARTKFWIESEGPHSNLYTYQGNMKWRNLADGEIRNEPITINNVLLRGCTLRNTKWAMGVVMFTGGDTKIMLNSGITPTKKSRISRELNFSVVINFVLLFILCFVSGIANGVYYDKKGRSRFSYEFGTIAGSAATNGFVSFWVAVILYQSLVPISLYISVEIIKTAQAAFIYGDVLLYNAKLDYPCTPKSWNISDDLGQVEYIFSDKTGTLTQNVMEFKKCTINGVSYGRAYTEALAGLRKRQGIDVETEGRREKAEIAKDRDTMIDELRALSGNSQFYPEEVTFVSKEFVRDLKGASGEVQQRCCEHFMLALALCHSVLVEANPDNPKKLDLKAQSPDEAALVATARDVGFSFVGKTKKGLIIEMQGIQKEFEILNILEFNSSRKRMSCIVKIPGLNPGDEPRALLICKGADSIIYSRLSRQSGSNSEAILEKTALHLEQYATEGLRTLCIAQRELSWSEYEKWNEKYDIAAASLANREDELEVVADSIERELILLGGTAIEDRLQDGVPDCIELLAEAGIKLWVLTGDKVETAINIGFSCNLLNNEMELLVIKTTGDDVKEFGSEPSEIVDALLSKYLKEYFNLTGSEEEIFEAKKDHEFPKGNYAIVIDGDALKLALYGEDIRRKFLLLCKNCRAVLCCRVSPSQKAAVVKLVKDSLDVMTLAIGDGSNDVAMIQSADVGIGIAGEEGRQAVMCSDYAIGQFRYLARLVLVHGRWSYKRLAEMIPEFFYKNMIFALALFWYGIYNDFDGSYLYEYTYMMFYNLAFTSLPVIFLGILDQDVNDTISLVVPQLYRVGILRKEWNQRKFLWYMLDGLYQSIICFFFPYLVYHKNMIVTSNGLGLDHRYFVGVYVTTIAVISCNTYVLLHQYRWDWFSGLFIALSCLVVFAWTGIWSSAIASREFFKAAARIYGAPSFWAVFFVAVLFCLLPRFTYDSFQKFFYPTDVEIVREMWQHGHFDHYPPGYDPTDPNRPKVTKAGQHGEKIIEGIALSDNLGGSNYSRDSVVTEEIPMTFMHGEDGSPSGYQKQETWMTSPKETQDLLQSPQFQQAQTFGRGPSTNVRSSLDRTREQMIATNQLDNRYSVERARTSLDLPGVTNAASLIGTQQNN

Variants of: B1
Conditions: with fpk1_yeast FPK1, P53739
Target sequence in this assay (P53739 whole entry): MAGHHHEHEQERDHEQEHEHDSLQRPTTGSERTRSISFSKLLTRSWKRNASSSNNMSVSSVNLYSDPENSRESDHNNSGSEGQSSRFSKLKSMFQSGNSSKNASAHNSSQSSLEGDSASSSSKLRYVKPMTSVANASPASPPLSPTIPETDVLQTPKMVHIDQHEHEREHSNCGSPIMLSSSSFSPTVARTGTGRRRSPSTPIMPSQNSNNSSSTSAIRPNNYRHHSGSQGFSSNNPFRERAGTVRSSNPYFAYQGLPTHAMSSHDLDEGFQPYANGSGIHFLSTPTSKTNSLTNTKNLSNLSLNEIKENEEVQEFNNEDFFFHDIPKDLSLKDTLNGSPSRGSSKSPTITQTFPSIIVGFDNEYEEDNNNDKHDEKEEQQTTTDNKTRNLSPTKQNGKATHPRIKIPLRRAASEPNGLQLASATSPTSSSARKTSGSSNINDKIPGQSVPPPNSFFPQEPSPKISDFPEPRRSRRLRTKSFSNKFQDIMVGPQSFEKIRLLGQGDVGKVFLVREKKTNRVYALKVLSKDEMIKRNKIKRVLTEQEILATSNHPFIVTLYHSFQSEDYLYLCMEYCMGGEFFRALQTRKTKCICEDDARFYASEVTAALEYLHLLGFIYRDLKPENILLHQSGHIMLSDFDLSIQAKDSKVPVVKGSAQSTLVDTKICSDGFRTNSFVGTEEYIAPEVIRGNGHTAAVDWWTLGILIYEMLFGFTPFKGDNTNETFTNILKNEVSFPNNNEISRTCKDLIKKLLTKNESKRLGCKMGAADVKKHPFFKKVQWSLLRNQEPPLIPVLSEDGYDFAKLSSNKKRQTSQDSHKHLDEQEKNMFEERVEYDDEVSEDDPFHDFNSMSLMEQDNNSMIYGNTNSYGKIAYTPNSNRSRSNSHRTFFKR
With S51A;S71A the “effect of a mutation on the interaction” value was “disrupting interaction”.

Variants of: B2
Conditions: with fpk1_yeast FPK1, P53739
Target sequence in this assay (P53739 whole entry): as above
In the case of S1526A;S1552A, the “effect of a mutation on the interaction” value is reported as “decreasing interaction”.
